Broadly, the Tm is the temperature at the midpoint of the melting transition.

Several values for one entry are separate records, joined by “and”; a condition that tells them apart may be missing. Identical values can stand only once.

First the molecules themselves.
B1: Triosephosphate isomerase, P00942 (parent)
chain: MARTFFVGGNFKLNGSKQSIKEIVERLNTASIPENVEVVICPPATYLDYSVSLVKKPQVTVGAQNAYLKASGAFTGENSVDQIKDVGAKWVILGHSERRSYFHEDDKFIADKTKFALGQGVGVILCIGETLEEKKAGKTLDVVERQLNAVLEEVKDWTNVVVAYEPVWAIGTGLAATPEDAQDIHASIRKFLASKLGDKAASELRILYGGSANGSNAVTFKDKADVDGFLVGGASLKPEFVDIINSRN
B2: Elongation factor Ts, P43895 (parent)
chain: MSQMELIKKLREATGAGMMDVKRALEDAGWDEEKAVQLLRERGAMKAAKKADREAREGIIGHYIHHNQRVGVLVELNCETDFVARNELFQNLAKDLAMHIAMMNPRYVSAEEIPAEELEKERQIYIQAALNEGKPQQIAEKIAEGRLKKYLEEVVLLEQPFVKDDKVKVKELIQQAIAKIGENIVVRRFCRFELGA
B3: Holocytochrome-c synthase, P06182 (parent)
chain: MGWFWADQKTTGKDIGGAAVSSMSGCPVMHESSSSSPPSSECPVMQGDNDRINPLNNMPELAASKQPGQKMDLPVDRTISSIPKSPDSNEFWEYPSPQQMYNAMVRKGKIGGSGEVAEDAVESMVQVHNFLNEGCWQEVLEWEKPHTDESHVQPKLLKFMGKPGVLSPRARWMHLCGLLFPSHFSQELPFDRHDWIVLRGERKAEQQPPTFKEVRYVLDFYGGPDDENGMPTFHVDVRPALDSLDNAKDRMTRFLDRMISGPSSSSSAP
B4: Copper-transporting ATPase 2, P35670 (parent)
chain: MPEQERQITAREGASRKILSKLSLPTRAWEPAMKKSFAFDNVGYEGGLDGLGPSSQVATSTVRILGMTCQSCVKSIEDRISNLKGIISMKVSLEQGSATVKYVPSVVCLQQVCHQIGDMGFEASIAEGKAASWPSRSLPAQEAVVKLRVEGMTCQSCVSSIEGKVRKLQGVVRVKVSLSNQEAVITYQPYLIQPEDLRDHVNDMGFEAAIKSKVAPLSLGPIDIERLQSTNPKRPLSSANQNFNNSETLGHQGSHVVTLQLRIDGMHCKSCVLNIEENIGQLLGVQSIQVSLENKTAQVKYDPSCTSPVALQRAIEALPPGNFKVSLPDGAEGSGTDHRSSSSHSPGSPPRNQVQGTCSTTLIAIAGMTCASCVHSIEGMISQLEGVQQISVSLAEGTATVLYNPSVISPEELRAAIEDMGFEASVVSESCSTNPLGNHSAGNSMVQTTDGTPTSVQEVAPHTGRLPANHAPDILAKSPQSTRAVAPQKCFLQIKGMTCASCVSNIERNLQKEAGVLSVLVALMAGKAEIKYDPEVIQPLEIAQFIQDLGFEAAVMEDYAGSDGNIELTITGMTCASCVHNIESKLTRTNGITYASVALATSKALVKFDPEIIGPRDIIKIIEEIGFHASLAQRNPNAHHLDHKMEIKQWKKSFLCSLVFGIPVMALMIYMLIPSNEPHQSMVLDHNIIPGLSILNLIFFILCTFVQLLGGWYFYVQAYKSLRHRSANMDVLIVLATSIAYVYSLVILVVAVAEKAERSPVTFFDTPPMLFVFIALGRWLEHLAKSKTSEALAKLMSLQATEATVVTLGEDNLIIREEQVPMELVQRGDIVKVVPGGKFPVDGKVLEGNTMADESLITGEAMPVTKKPGSTVIAGSINAHGSVLIKATHVGNDTTLAQIVKLVEEAQMSKAPIQQLADRFSGYFVPFIIIMSTLTLVVWIVIGFIDFGVVQRYFPNPNKHISQTEVIIRFAFQTSITVLCIACPCSLGLATPTAVMVGTGVAAQNGILIKGGKPLEMAHKIKTVMFDKTGTITHGVPRVMRVLLLGDVATLPLRKVLAVVGTAEASSEHPLGVAVTKYCKEELGTETLGYCTDFQAVPGCGIGCKVSNVEGILAHSERPLSAPASHLNEAGSLPAEKDAVPQTFSVLIGNREWLRRNGLTISSDVSDAMTDHEMKGQTAILVAIDGVLCGMIAIADAVKQEAALAVHTLQSMGVDVVLITGDNRKTARAIATQVGINKVFAEVLPSHKVAKVQELQNKGKKVAMVGDGVNDSPALAQADMGVAIGTGTDVAIEAADVVLIRNDLLDVVASIHLSKRTVRRIRINLVLALIYNLVGIPIAAGVFMPIGIVLQPWMGSAAMAASSVSVVLSSLQLKCYKKPDLERYEAQAHGHMKPLTASQVSVHIGMDDRWRDSPRATPWDQVSYVSQVSLSSLTSDKPSRHSAAADDDGDKWSLLLNGRDEEQYI
B5: V92L, O26594 (parent)
chain: MRCAFMKKYILIVMLALMVAGCVSEDGNYTYNEGVQDSNVDNPVNDSWTSDSQDKVNDTAEKKSSYEASGSCYHVVDGDTIDVEGVGRIRLVGVNTPERGQPGYREAKDFVKSMCLGRTVQLDIDDAKRHDRYGRVLAVVYVDGVNLNRELLRRGYAEVMYIPPSEFNPYGWT
B6: Cyanovirin-N, P81180 (parent)
chain: LGKFSQTCYNSAIQGSVLTSTCERTNGGYNTSSIDLNSVIENVDGSLKWQPSNFIETCRNTQLAGSSELAAECKTRAQQFVSTKINLDDHIANIDGTLKYE
B7: Amicyanin, P22364 (parent)
chain: MISATKIRSCLAACVLAAFGATGALADKATIPSESPFAAAEVADGAIVVDIAKMKYETPELHVKVGDTVTWINREAMPHNVHFVAGVLGEAALKGPMMKKEQAYSLTFTEAGTYDYHCTPHPFMRGKVVVE
B8: Endo-1,4-beta-xylanase 2, P36217 (parent)
chain: MVSFTSLLAGVAAISGVLAAPAAEVESVAVEKRQTIQPGTGYNNGYFYSYWNDGHGGVTYTNGPGGQFSVNWSNSGNFVGGKGWQPGTKNKVINFSGSYNPNGNSYLSVYGWSRNPLIEYYIVENFGTYNPSTGATKLGEVTSDGSVYDIYRTQRVNQPSIIGTATFYQYWSVRRNHRSSGSVNTANHFNAWAQQGLTLGTMDYQIVAVEGYFSSGSASITVS
B9: Phosphoglycerate kinase, P18912 (parent)
chain: MNKKTIRDVDVRGKRVFCRVDFNVPMEQGAITDDTRIRAALPTIRYLIEHGAKVILASHLGRPKGKVVEELRLDAVAKRLGELLERPVAKTNEAVGDEVKAAVDRLNEGDVLLLENVRFYPGEEKNDPELAKAFAELADLYVNDAFGAAHRAHASTEGIAHYLPAVAGFLMEKELEVLGKALSNPDRPFTAIIGGAKVKDKIGVIDNLLEKVDNLIIGGGLAYTFVKALGHDVGKSLLEEDKIELAKSFMEKAKEKGVRFYMPVDVVVADRFANDANTKVVPIDAIPADWSALDIGPKTRELYRDVIRESKLVVWNGPMGVFEMDAFAHGTKAIAEALAEALDTYSVIGGGDSAAAVEKFGLADKMDHISTGGGASLEFMEGKQLPGVVALEDK

The variants in the first data set derive from B1. The following applies: Saccharomyces cerevisiae (strain ATCC 204508 / S288c); pH 7.4; Thermal; CD; Tris 50 mM; reversible: No; structure 1YPI; whole UniProt chain shown.
Turning to C126A, the “change of melting temperature, mutant - wild type (higher = more stable)” value (shortened to “change of melting temperature, mutant”) was -11.2 °C.

Turning to C126S, the “change of melting temperature, mutant” value was -11.2 °C.

Staying with this data set, now noted: Saccharomyces cerevisiae (strain ATCC 204508 / S288c); pH 8.5; Thermal; CD; Tris 50 mM; reversible: No; structure 1YPI; whole UniProt chain shown.
Turning to C126S, the “change of melting temperature, mutant” value was -13 °C.

The variants in a further data set derive from B2. The conditions noted are these: Thermus thermophilus (strain ATCC 27634 / DSM 579 / HB8); pH 7; Thermal; CD; Phosphate 10 mM; reversible: No; structure 1TFE; whole UniProt chain shown.
Take C190A: the melting temperature (Tm) worked out at 105 °C and the “change of melting temperature, mutant” value is -10 °C.

Variants of B3 are the subject of another data set. The conditions noted are these: Saccharomyces cerevisiae (strain ATCC 204508 / S288c); pH 6; Thermal; Absorbance; Sodium phosphate 100 mM; reversible: yes; whole UniProt chain shown.
Regarding N57I, the Tm worked out at 63.7 °C; the “change of melting temperature, mutant” value was 17.2 °C; the “heat capacity change of unfolding” value is 2 kcal/mol/K; the “unfolding enthalpy (van 't Hoff)” value was 109 kcal/mol.

The variants in the next data set derive from B4. The following applies: Homo sapiens; pH 7; 20 °C; Urea; CD; NaH2PO4 50 mM; transition: 2; reversible: No; structure 2ARF; whole UniProt chain shown.
In the case of H1069Q, the “ddG of mutation (higher = less stable)” value was determined as 0.96 kcal/mol; the “denaturant midpoint (higher = more stable)” value was 4.7 M and 4 M; the unfolding free energy is 5.74 kcal/mol and 6.21 kcal/mol.

Variants of B5 are the subject of another data set. The conditions noted are these: Methanothermobacter thermautotrophicus (strain ATCC 29096 / DSM 1053 / JCM 10044 / NBRC 100330 / Delta H); pH 7; 20 °C; GdnHCl; Fluorescence; Sodium phosphate sodium chloride 25 mM 100 mM; whole UniProt chain shown.
Consider V92L, for which the “ddG of mutation (higher = less stable)” value turned out to be 1.1 kcal/mol, the denaturant m value was determined as 1.03 kcal/mol/M, the “denaturant midpoint (higher = more stable)” value was found to be 0.2 M and the unfolding free energy was 1.3 kcal/mol.

Variants of B6 are the subject of another data set. The following applies: Nostoc ellipsosporum; pH 6; Thermal; CD; Sodium phosphate 10 mM; structure 1N02; whole UniProt chain shown.
With P51G, the melting temperature (Tm) was 50.2 °C and the “change of melting temperature, mutant” value worked out at 1.7 °C.

The variants in a further data set derive from B7. The conditions noted are these: Paracoccus denitrificans; pH 7.5; Thermal; absorbance; Potassium Phosphate Buffer 10 mM; structure 2OV0; whole UniProt chain shown.
Regarding W71Y, the midpoint of thermal melting (Tm) is 53.9 °C.

Variants of B8 are the subject of the next data set. The conditions noted are these: Hypocrea jecorina (strain ATCC 56765 / BCRC 32924 / NRRL 11460 / Rut C-30); pH 5; Thermal; DSC; citrate - phosphate buffer 50 mM; structure 1ENX; whole UniProt chain shown.
On to T35C T61C K91R, for which the midpoint of thermal melting (Tm) was 72.5 °C and the “change of melting temperature, mutant” value was determined as 11.1 °C.

The variants in the next data set derive from B9. The following applies: Geobacillus stearothermophilus; pH 7.2; 25 °C; GdnHCl; Fluorescence; TEA 50 mM; reversible: no; structure 1PHP; whole UniProt chain shown.
With I217A L221A, the unfolding free energy is 5.7 kcal/mol and 9.6 kcal/mol.

For the origin of these results see FireProtDB.
